In article PMC12609122:
One block for each substance: values may come before it.

How the values were obtained:
[1] = target: Tha4 A65CT78C (E10 background) (Pisum sativum); assay: cross-linking; radiolabelled double-Cys Tha4 integrated into NEM-treated pea thylakoids; 0.25 mM BMOE, 10 min; four conditions: with or without precursor (V-20F)tOE17 (1.5 uM), with PMF (light, 15 °C) or without (dark, on ice; 0.5 uM nigericin and 1 uM valinomycin); SDS-PAGE and fluorography; result as told over the conditions
[2] = target: Tha4 E10A A18CL20C (Pisum sativum); assay: cross-linking; as a1, the sample with the functional precursor (V-20F)tOE17 and with PMF (light)
[3] = target: Tha4 E10A F41CA45C (Pisum sativum); assay: cross-linking; radiolabelled double-Cys Tha4 integrated into NEM-treated pea thylakoids; 0.25 mM BMOE, 10 min; four conditions: with or without precursor (V-20F)tOE17 (1.5 uM), with PMF (light, 15 °C) or without (dark, on ice; 0.5 uM nigericin and 1 uM valinomycin); SDS-PAGE and fluorography; result as told over the conditions
[4] = target: Tha4 E10A P56CP58C (Pisum sativum); assay: as above
[5] = target: Tha4 E10A V8CP9C (Pisum sativum); assay: as above
[6] = target: Tha4 E10A V21CG23C (Pisum sativum); assay: as above
[7] = target: Tha4 E10D K39CQ43C (Pisum sativum); assay: as above
[8] = target: Tha4 E10D P56CP58C (Pisum sativum); assay: as above
[9] = target: Tha4 E10D V8CP9C (Pisum sativum); assay: as above
[10] = target: Tha4 P56CP58C (E10 background) (Pisum sativum); assay: as above
[11] = target: Tha4 V8CP9C (E10 background) (Pisum sativum); assay: cross-linking; as a1, the samples with the functional precursor (V-20F)tOE17 (1.5 uM), with or without PMF
[12] = target: Tha4 V8CP9C (E10 background) (Pisum sativum); assay: cross-linking; radiolabelled double-Cys Tha4 integrated into NEM-treated pea thylakoids; 0.25 mM BMOE, 10 min; four conditions: with or without precursor (V-20F)tOE17 (1.5 uM), with PMF (light, 15 °C) or without (dark, on ice; 0.5 uM nigericin and 1 uM valinomycin); SDS-PAGE and fluorography; result as told over the conditions
[13] = target: Tha4 V13CI14C (E10 background) (Pisum sativum); assay: as above
[14] = target: Tha4 V21CG23C (E10 background) (Pisum sativum); assay: as above

Substance: Tha4 E10A A18CL20C (natural protein)
stoichiometry N [2]: < 4

Substance: Tha4 E10A F41CA45C (natural protein)
stoichiometry N [3]: < 6

Substance: Tha4 E10D K39CQ43C (natural protein)
stoichiometry N [7]: < 4

Substance: Tha4 E10D V8CP9C (natural protein)
stoichiometry N [9]: < 6

Substance: Tha4 P56CP58C (E10 background) (natural protein)
stoichiometry N [10]: < 4

Substance: Tha4 V8CP9C (E10 background) (natural protein)
stoichiometry N [11]: < 6
stoichiometry N [12]: < 4

The next lines start with the values.

stoichiometry N [1]: < 5
Substance: Tha4 A65CT78C (E10 background) (natural protein)

stoichiometry N [4]: < 4
Substance: Tha4 E10A P56CP58C (natural protein)

stoichiometry N [5]: < 6
Substance: Tha4 E10A V8CP9C (natural protein)

stoichiometry N [6]: < 10
Substance: Tha4 E10A V21CG23C (natural protein)

stoichiometry N [8]: < 4
Substance: Tha4 E10D P56CP58C (natural protein)

stoichiometry N [13]: < 6
Substance: Tha4 V13CI14C (E10 background) (natural protein)

bands in the oligomer ladder [14]: < 6 bands
Substance: Tha4 V21CG23C (E10 background) (natural protein)
